Article PMC9482650, “Quantitative fragmentomics allow affinity mapping of interactomes” (Nature Communications, 2022)

T1: NHERF3_3, Q5T2W1
T1 sequence (Q5T2W1 238-333, limits assumed, looked up): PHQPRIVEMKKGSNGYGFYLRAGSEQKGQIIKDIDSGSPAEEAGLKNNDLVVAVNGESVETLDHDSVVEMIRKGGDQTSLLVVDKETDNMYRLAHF

T2: SHANK1, Q9Y566
T2 sequence (Q9Y566 658-767, limits assumed, looked up): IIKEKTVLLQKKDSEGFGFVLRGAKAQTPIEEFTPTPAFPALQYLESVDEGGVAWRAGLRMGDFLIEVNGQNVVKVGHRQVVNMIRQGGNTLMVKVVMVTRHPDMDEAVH

T3: DLG3_2, Q92796
T3 sequence (Q92796 221-321, limits assumed, looked up): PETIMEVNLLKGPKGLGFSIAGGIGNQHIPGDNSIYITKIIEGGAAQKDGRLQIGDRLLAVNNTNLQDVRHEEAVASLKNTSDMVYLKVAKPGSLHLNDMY

T4: GRIP1_5, Q9Y3R0
T4 sequence (Q9Y3R0 568-668, limits assumed, looked up): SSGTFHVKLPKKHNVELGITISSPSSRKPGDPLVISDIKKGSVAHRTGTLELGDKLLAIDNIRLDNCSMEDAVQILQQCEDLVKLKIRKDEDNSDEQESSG

T5: SIPA1L2, Q9P2F8
T5 sequence (Q9P2F8 945-1036, limits assumed, looked up): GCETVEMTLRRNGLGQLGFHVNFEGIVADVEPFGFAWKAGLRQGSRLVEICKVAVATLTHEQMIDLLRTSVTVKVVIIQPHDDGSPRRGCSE

T6: NHERF3_4, Q5T2W1
T6 sequence (Q5T2W1 373-468, limits assumed, looked up): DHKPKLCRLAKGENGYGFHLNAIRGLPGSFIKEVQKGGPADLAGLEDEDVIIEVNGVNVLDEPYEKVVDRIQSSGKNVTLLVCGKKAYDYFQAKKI

T7: DFNB31_3, Q9P202
T7 sequence (Q9P202 811-907, limits assumed, looked up): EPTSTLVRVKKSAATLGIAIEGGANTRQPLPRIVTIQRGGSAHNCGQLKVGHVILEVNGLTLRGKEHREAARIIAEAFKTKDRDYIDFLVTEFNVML

T8: SNTB1, Q13884
T8 sequence (Q13884 107-205, limits assumed, looked up): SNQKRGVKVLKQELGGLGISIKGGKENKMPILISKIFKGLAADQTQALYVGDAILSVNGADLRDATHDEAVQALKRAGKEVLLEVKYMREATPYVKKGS

T9: LIN7C, Q9NUP9
T9 sequence (Q9NUP9 88-185, limits assumed, looked up): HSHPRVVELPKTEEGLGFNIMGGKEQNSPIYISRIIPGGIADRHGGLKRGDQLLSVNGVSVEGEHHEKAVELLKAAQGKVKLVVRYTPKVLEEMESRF

T10: LNX2_2, Q8N448
T10 sequence (Q8N448 334-432, limits assumed, looked up): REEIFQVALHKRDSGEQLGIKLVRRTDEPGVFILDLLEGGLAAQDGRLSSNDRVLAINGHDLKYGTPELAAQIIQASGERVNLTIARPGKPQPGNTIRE

T11: MPDZ_5, O75970
T11 sequence (O75970 695-796, limits assumed, looked up): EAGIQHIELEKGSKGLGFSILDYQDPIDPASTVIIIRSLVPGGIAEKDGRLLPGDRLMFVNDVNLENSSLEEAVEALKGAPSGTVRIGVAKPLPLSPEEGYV

T12: DVL3, Q92997
T12 sequence (Q92997 244-331, limits assumed, looked up): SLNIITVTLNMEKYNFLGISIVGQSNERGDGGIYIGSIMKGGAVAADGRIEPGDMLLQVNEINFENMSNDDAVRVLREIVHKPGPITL

B1: MKNK1, Q9BUB5 (peptide)
chain: GEDRSPPTAL
B2: MTNR1A, P48039 (peptide)
chain: NNNVVKVDSV
B3: PTTG2, Q9NZH5 (peptide)
chain: LPAVCYDIDI
B4: SLC16A7, O60669 (peptide)
chain: SVTSERETNI

The binders below were run against T1, NHERF3_3, Q5T2W1 (assay: holdup assay). Details: plain residues with an end cap or a label only (N-terminal biotin on a linker: ado-ado).
Parameters: key: below the threshold = too weak to quantify, mostly under pKd 3.1 to 4

| Binder | pKd |
| --- | --- |
| B1 | below the threshold |
| B2 | below the threshold |
| B3 | below the threshold |
| B4 | below the threshold |

What follows are binders tested against T2, SHANK1, Q9Y566 (assay: holdup assay). Details: plain residues with an end cap or a label only (N-terminal biotin on a linker: ado-ado).
Parameters: key: below the threshold = too weak to quantify, mostly under pKd 3.1 to 4

| Binder | pKd |
| --- | --- |
| B1 | below the threshold |
| B2 | below the threshold |
| B3 | below the threshold |
| B4 | below the threshold |

The binders below were run against Inadl_2, Q8NI35 (assay: holdup assay). Details: plain residues with an end cap or a label only (N-terminal biotin on a linker: ado-ado).
Parameters: key: below the threshold = too weak to quantify, mostly under pKd 3.1 to 4

Chain of Inadl_2, Q8NI35 (Q8NI35 238-335): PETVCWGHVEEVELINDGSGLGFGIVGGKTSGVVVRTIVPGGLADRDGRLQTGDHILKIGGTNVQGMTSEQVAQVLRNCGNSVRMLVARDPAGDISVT

| Binder | pKd |
| --- | --- |
| B1 | below the threshold |
| B2 | below the threshold |
| B3 | below the threshold |
| B4 | below the threshold |

What follows are binders tested against GORASP2, Q9H8Y8 (assay: holdup assay). Details: plain residues with an end cap or a label only (N-terminal biotin on a linker: ado-ado).
Parameters: key: below the threshold = too weak to quantify, mostly under pKd 3.1 to 4

| Binder | pKd |
| --- | --- |
| B1 | below the threshold |
| B2 | below the threshold |
| B3 | 3.66 |
| B4 | below the threshold |

The binders below were run against LNX1_2, Q8TBB1 (assay: holdup assay). Details: plain residues with an end cap or a label only (N-terminal biotin on a linker: ado-ado).
Parameters: key: below the threshold = too weak to quantify, mostly under pKd 3.1 to 4

Chain of LNX1_2, Q8TBB1 (Q8TBB1 371-470): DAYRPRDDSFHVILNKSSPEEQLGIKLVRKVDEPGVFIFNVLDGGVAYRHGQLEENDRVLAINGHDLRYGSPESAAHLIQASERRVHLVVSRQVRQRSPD

| Binder | pKd |
| --- | --- |
| B1 | below the threshold |
| B2 | below the threshold |
| B3 | below the threshold |
| B4 | below the threshold |

Each binder was assayed against TJP1_2, Q07157 (assay: holdup assay). Details: plain residues with an end cap or a label only (N-terminal biotin on a linker: ado-ado).
Parameters: key: below the threshold = too weak to quantify, mostly under pKd 3.1 to 4

Chain of TJP1_2, Q07157 (Q07157 181-274): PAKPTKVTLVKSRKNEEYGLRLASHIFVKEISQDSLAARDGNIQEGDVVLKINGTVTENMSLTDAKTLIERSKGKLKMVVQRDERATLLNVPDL

| Binder | pKd |
| --- | --- |
| B1 | below the threshold |
| B2 | below the threshold |
| B3 | 4.32 |
| B4 | below the threshold |

Each binder was assayed against FRMPD2_3, Q68DX3 (assay: holdup assay). Details: plain residues with an end cap or a label only (N-terminal biotin on a linker: ado-ado).
Parameters: key: below the threshold = too weak to quantify, mostly under pKd 3.1 to 4

Chain of FRMPD2_3, Q68DX3 (Q68DX3 1073-1166): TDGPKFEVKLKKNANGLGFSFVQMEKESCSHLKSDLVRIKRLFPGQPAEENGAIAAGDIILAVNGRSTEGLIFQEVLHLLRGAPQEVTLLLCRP

| Binder | pKd |
| --- | --- |
| B1 | below the threshold |
| B2 | below the threshold |
| B3 | below the threshold |
| B4 | below the threshold |

These binders were tested against SCRIB_2, Q14160 (assay: holdup assay). Details: plain residues with an end cap or a label only (N-terminal biotin on a linker: ado-ado).
Parameters: key: below the threshold = too weak to quantify, mostly under pKd 3.1 to 4

Chain of SCRIB_2, Q14160 (Q14160 857-960): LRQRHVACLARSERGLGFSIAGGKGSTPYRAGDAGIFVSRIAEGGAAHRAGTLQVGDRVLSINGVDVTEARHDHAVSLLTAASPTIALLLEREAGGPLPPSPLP

| Binder | pKd |
| --- | --- |
| B1 | below the threshold |
| B2 | below the threshold |
| B3 | below the threshold |
| B4 | 3.69 |

The binders below were run against MAGI3_2, Q5TCQ9 (assay: holdup assay). Details: plain residues with an end cap or a label only (N-terminal biotin on a linker: ado-ado).
Parameters: key: below the threshold = too weak to quantify, mostly under pKd 3.1 to 4

Chain of MAGI3_2, Q5TCQ9 (Q5TCQ9 398-503): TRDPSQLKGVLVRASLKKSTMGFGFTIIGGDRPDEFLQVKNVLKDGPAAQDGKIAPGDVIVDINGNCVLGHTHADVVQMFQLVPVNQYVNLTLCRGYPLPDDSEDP

| Binder | pKd |
| --- | --- |
| B1 | below the threshold |
| B2 | below the threshold |
| B3 | below the threshold |
| B4 | below the threshold |

The binders below were run against T3, DLG3_2, Q92796 (assay: holdup assay). Details: plain residues with an end cap or a label only (N-terminal biotin on a linker: ado-ado).
Parameters: key: below the threshold = too weak to quantify, mostly under pKd 3.1 to 4

| Binder | pKd |
| --- | --- |
| B1 | below the threshold |
| B2 | 4.03 |
| B3 | 4.09 |
| B4 | 4.25 |

These binders were tested against GRIP2_3, Q9C0E4 (assay: holdup assay). Details: plain residues with an end cap or a label only (N-terminal biotin on a linker: ado-ado).
Parameters: key: below the threshold = too weak to quantify, mostly under pKd 3.1 to 4

Chain of GRIP2_3, Q9C0E4 (Q9C0E4 238-339): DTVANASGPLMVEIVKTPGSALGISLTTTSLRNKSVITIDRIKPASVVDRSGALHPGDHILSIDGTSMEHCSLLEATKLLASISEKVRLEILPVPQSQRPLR

| Binder | pKd |
| --- | --- |
| B1 | below the threshold |
| B2 | below the threshold |
| B3 | below the threshold |
| B4 | below the threshold |

The binders below were run against T4, GRIP1_5, Q9Y3R0 (assay: holdup assay). Details: plain residues with an end cap or a label only (N-terminal biotin on a linker: ado-ado).
Parameters: key: below the threshold = too weak to quantify, mostly under pKd 3.1 to 4

| Binder | pKd |
| --- | --- |
| B1 | below the threshold |
| B2 | below the threshold |
| B3 | below the threshold |
| B4 | below the threshold |

What follows are binders tested against T5, SIPA1L2, Q9P2F8 (assay: holdup assay). Details: plain residues with an end cap or a label only (N-terminal biotin on a linker: ado-ado).
Parameters: key: below the threshold = too weak to quantify, mostly under pKd 3.1 to 4

| Binder | pKd |
| --- | --- |
| B1 | below the threshold |
| B2 | below the threshold |
| B3 | below the threshold |
| B4 | below the threshold |

What follows are binders tested against PICK1, Q9NRD5 (assay: holdup assay). Details: plain residues with an end cap or a label only (N-terminal biotin on a linker: ado-ado).
Parameters: key: below the threshold = too weak to quantify, mostly under pKd 3.1 to 4

Chain of PICK1, Q9NRD5 (Q9NRD5 17-115): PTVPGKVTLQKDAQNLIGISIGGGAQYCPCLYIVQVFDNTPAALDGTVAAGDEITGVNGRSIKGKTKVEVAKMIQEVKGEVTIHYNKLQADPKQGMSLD

| Binder | pKd |
| --- | --- |
| B1 | below the threshold |
| B2 | 4.06 |
| B3 | below the threshold |
| B4 | below the threshold |

Each binder was assayed against T6, NHERF3_4, Q5T2W1 (assay: holdup assay). Details: plain residues with an end cap or a label only (N-terminal biotin on a linker: ado-ado).
Parameters: key: below the threshold = too weak to quantify, mostly under pKd 3.1 to 4

| Binder | pKd |
| --- | --- |
| B1 | 3.7 |
| B2 | below the threshold |
| B3 | below the threshold |
| B4 | below the threshold |

What follows are binders tested against GRID2IP_1, A4D2P6 (assay: holdup assay). Details: plain residues with an end cap or a label only (N-terminal biotin on a linker: ado-ado).
Parameters: key: below the threshold = too weak to quantify, mostly under pKd 3.1 to 4

Chain of GRID2IP_1, A4D2P6 (A4D2P6 1-87): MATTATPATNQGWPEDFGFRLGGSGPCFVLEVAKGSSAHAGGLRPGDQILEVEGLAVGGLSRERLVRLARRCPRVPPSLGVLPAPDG

| Binder | pKd |
| --- | --- |
| B1 | below the threshold |
| B2 | below the threshold |
| B3 | below the threshold |
| B4 | below the threshold |

What follows are binders tested against T7, DFNB31_3, Q9P202 (assay: holdup assay). Details: plain residues with an end cap or a label only (N-terminal biotin on a linker: ado-ado).
Parameters: key: below the threshold = too weak to quantify, mostly under pKd 3.1 to 4

| Binder | pKd |
| --- | --- |
| B1 | below the threshold |
| B2 | 3.93 |
| B3 | 3.9 |
| B4 | 3.97 |

Each binder was assayed against AHNAK1, Q09666 (assay: holdup assay). Details: plain residues with an end cap or a label only (N-terminal biotin on a linker: ado-ado).
Parameters: key: below the threshold = too weak to quantify, mostly under pKd 3.1 to 4

Chain of AHNAK1, Q09666 (Q09666 4-100): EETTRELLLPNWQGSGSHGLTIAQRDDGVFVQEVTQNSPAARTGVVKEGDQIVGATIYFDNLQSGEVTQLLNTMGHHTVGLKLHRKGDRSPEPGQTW

| Binder | pKd |
| --- | --- |
| B1 | below the threshold |
| B2 | below the threshold |
| B3 | below the threshold |
| B4 | below the threshold |

These binders were tested against T8, SNTB1, Q13884 (assay: holdup assay). Details: plain residues with an end cap or a label only (N-terminal biotin on a linker: ado-ado).
Parameters: key: below the threshold = too weak to quantify, mostly under pKd 3.1 to 4

| Binder | pKd |
| --- | --- |
| B1 | 3.51 |
| B2 | below the threshold |
| B3 | below the threshold |
| B4 | 5.38 |

The binders below were run against T9, LIN7C, Q9NUP9 (assay: holdup assay). Details: plain residues with an end cap or a label only (N-terminal biotin on a linker: ado-ado).
Parameters: key: below the threshold = too weak to quantify, mostly under pKd 3.1 to 4

| Binder | pKd |
| --- | --- |
| B1 | 4.02 |
| B2 | below the threshold |
| B3 | 4.01 |
| B4 | 4.11 |

Each binder was assayed against FRMPD4, Q14CM0 (assay: holdup assay). Details: plain residues with an end cap or a label only (N-terminal biotin on a linker: ado-ado).
Parameters: key: below the threshold = too weak to quantify, mostly under pKd 3.1 to 4

Chain of FRMPD4, Q14CM0 (Q14CM0 67-160): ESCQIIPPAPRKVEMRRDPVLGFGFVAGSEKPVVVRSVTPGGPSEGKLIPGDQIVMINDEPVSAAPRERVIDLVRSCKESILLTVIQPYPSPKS

| Binder | pKd |
| --- | --- |
| B1 | 4.01 |
| B2 | below the threshold |
| B3 | below the threshold |
| B4 | below the threshold |

These binders were tested against T10, LNX2_2, Q8N448 (assay: holdup assay). Details: plain residues with an end cap or a label only (N-terminal biotin on a linker: ado-ado).
Parameters: key: below the threshold = too weak to quantify, mostly under pKd 3.1 to 4

| Binder | pKd |
| --- | --- |
| B1 | below the threshold |
| B2 | below the threshold |
| B3 | 3.83 |
| B4 | below the threshold |

What follows are binders tested against T11, MPDZ_5, O75970 (assay: holdup assay). Details: plain residues with an end cap or a label only (N-terminal biotin on a linker: ado-ado).
Parameters: key: below the threshold = too weak to quantify, mostly under pKd 3.1 to 4

| Binder | pKd |
| --- | --- |
| B1 | below the threshold |
| B2 | below the threshold |
| B3 | below the threshold |
| B4 | below the threshold |

The binders below were run against T12, DVL3, Q92997 (assay: holdup assay). Details: plain residues with an end cap or a label only (N-terminal biotin on a linker: ado-ado).
Parameters: key: below the threshold = too weak to quantify, mostly under pKd 3.1 to 4

| Binder | pKd |
| --- | --- |
| B1 | below the threshold |
| B2 | below the threshold |
| B3 | below the threshold |
| B4 | below the threshold |

The binders below were run against GORASP1, Q9BQQ3 (assay: holdup assay). Details: plain residues with an end cap or a label only (N-terminal biotin on a linker: ado-ado).
Parameters: key: below the threshold = too weak to quantify, mostly under pKd 3.1 to 4

Chain of GORASP1, Q9BQQ3 (Q9BQQ3 1-208): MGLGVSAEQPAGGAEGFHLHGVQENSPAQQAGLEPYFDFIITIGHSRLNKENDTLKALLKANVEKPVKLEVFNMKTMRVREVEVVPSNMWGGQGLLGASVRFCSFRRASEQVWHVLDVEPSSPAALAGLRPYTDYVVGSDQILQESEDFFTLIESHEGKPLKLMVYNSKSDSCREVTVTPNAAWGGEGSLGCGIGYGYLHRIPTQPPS

| Binder | pKd |
| --- | --- |
| B1 | below the threshold |
| B2 | below the threshold |
| B3 | 3.89 |
| B4 | below the threshold |
